According to publication PMC11234460, “In Silico Discovery of Stapled Peptide Inhibitor Targeting the Nur77‐PPARγ Interaction and Its Anti‐Breast‐Cancer Efficacy” (Advanced Science, 2024):
Bridges are numbered along the chain shown (N, C = ends). [ ]: non-standard residue; d: D form. S5 = C=CCCC[C@](C)(N)C(=O)O

Molecular target: LBD fragment of human Nur77 (residues 351–598) (human), P22736
Assay: SPR
Conditions: S-pentenyl-alanine (S5) at the i and i + 4 positions (Phe163 & Ile167), joined by ring-closing olefin metathesis (all-hydrocarbon staple), C-terminal primary amide X8 and X12 = S5 (S-pentenyl-alanine, replacing Phe163 and Ile167 of PPARγ), joined by an i,i+4 all-hydrocarbon staple (ring-closing olefin metathesis), free N-terminal amine, Tyr14 replaces Leu169, residues 15-25 are t, modification not given

LBD fragment of human Nur77 (residues 351–598) (human), P22736, sequence (P22736 351-598): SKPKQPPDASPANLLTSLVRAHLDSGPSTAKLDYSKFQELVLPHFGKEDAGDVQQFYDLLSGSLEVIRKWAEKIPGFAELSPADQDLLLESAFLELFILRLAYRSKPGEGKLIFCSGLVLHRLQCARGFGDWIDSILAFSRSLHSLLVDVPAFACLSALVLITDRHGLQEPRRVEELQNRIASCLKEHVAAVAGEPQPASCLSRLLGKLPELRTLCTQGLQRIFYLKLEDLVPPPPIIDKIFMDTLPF

koff: 0.052 s⁻¹
Binder: H-CEGCKGF[S5]RRT[S5]RYYGRKKRRQRRR-NH2 (staple 8-12; cysteine pairing not given here) [ST-CY14 (stapled T-CY14), P37231 156-169]
